Nine molecules from US20220267422A1 (PHAROSGEN, published 2022) can be followed below.

The target of assay [1] is T1, mPRND.
T1 construct: also called Mouse PRND; mouse doppel, recombinant, C-terminal His tag
T1 single chain: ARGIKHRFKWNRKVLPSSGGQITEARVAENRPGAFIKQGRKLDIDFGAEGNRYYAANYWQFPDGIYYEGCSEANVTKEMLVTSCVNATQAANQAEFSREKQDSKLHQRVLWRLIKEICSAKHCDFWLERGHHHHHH
Nature of the assay: ELISA, […], antibody 0-100 nM; […] (nM)'. A general note: ELISA stands for enzyme-linked immunosorbent assay.

Assay [2] concerns the target doppel (Prnd) recombinant protein immobilized on the SPR sensor chip. Nature of the assay: SPR, BIAcore T100, recombinant protein immobilized on chip. On the technique in general: SPR reads the build-up and loss of mass on a sensor chip optically.
Method: Affinity measurements of anti-doppel monoclonal antibodies produced by the clones described herein with Prnp and Prnd (doppel) were performed by the surface plasmon resonance on a BIAcore T100 (GE Healthcare). Using the standard EDAC-NHS coupling method, recombinant proteins were immobilized at a density of 4000-7000 onto a sensor chip (GE Healthcare). Measurements were performed at a flow rate of 20 μL/min, and 50 mM NaOH was used to regenerate the chip surface after each cycle of analysis. Each concentration was analyzed in duplicate. Kinetic analysis of the data obtained was performed using BIAcore T100 evaluation software (GE Healthcare).
Assay [3] concerns the target T1, mPRND. Nature of the assay: ELISA, […], antibody 0-100 nM; […] (nM)'; […].
Assay [4] deals with T2, Doppel on HCT116 cells, HUVEC and Dpl k/d HUVEC (human, UniProt Q9UKY0).
T2 construct: endogenous, on the surface of HCT116 cells, HUVEC and doppel knock-down HUVEC; also called PRND
Nature of the assay: flow cytometry, '% Doppel Ab binding cell' on HCT116, HUVEC and doppel knock-down HUVEC (24h, 48h); no control antibody and no concentration shown.

Assay [5] concerns the target T3, human doppel on human tumor endothelial cells (human, UniProt Q9UKY0 26-152).
T3 construct: whole, on cells; also called PRND; hPRND
The assay can be described thus: flow cytometry on HCTEC (human colonic tumor endothelial cells), fluorescent secondary antibody; no control bar and no antibody concentration shown.

In assay [6] the target is T1, mPRND. Nature of the assay: ELISA, […], antibody 0-100 nM; […] (nM)'.
The target of assay [7] is T3, human doppel on human tumor endothelial …. Nature of the assay: flow cytometry on human tumor endothelial cells, cancer cells and doppel knock-down cells.

The Kd is the equilibrium constant for the complex coming apart.

B1: murine monoclonal antibody produced by hybridoma cell line clone 7A11 (antibody, V domains shown)
VH: QVQLQQPGAELVRPGASVKLSCKASGYTFTSYWINWVKQRPGQGLEWIGNIYPSDSYTNYNQKFKDKATLTVDKSSSTAYMQLSSPTSEDSAVYYCTRSMITWGQGTTLTVSS
VL: DVLMTQTPLSLPVSLGDQASISCRSSQSIVHSNGNTYLEWYLQKPGQSPKVLIYKVSNRFSGVPDRFSGSGSGTDFTLKINRVEAEDLGVYYCFQGSHVPLTFGAGTKLELK
notes: also called hPrnd #7A11; KCLRF-BP-00498
As to B1, the Kd was determined as 0.876 nM with mPRND [1] and 0.253 nM in assay [2].

B2: murine monoclonal antibody produced by hybridoma cell line clone 7G3 (antibody, V domains shown)
VH: EIQLQQTGPELVKPGASVKISCKASGYSFTDYIMLWVKQSHGKSLEWIGNINPYYGSTSYNLKFKGKATLTVDKSSSTAYMQLNSLTSEDSAVYYCARRNYYGNYDAMDYWGQGTSVTVSS
VL: QIVLTQSPAIMSASLGERVTMTCTASSSVSSSYLHWYQQKPGSSPKLWIYSTSNLASGVPARFSGSGSGTSYSLTISSMEAEDTATYYCHQYHRSPLTFGAGTKLELK
notes: also called hPrnd #7G3; KCLRF-BP-00500
For B2, the figures for the Kd (in assay [2]; with mPRND [3]) were 10.6 nM and 25.9 nM, respectively. For the same molecule, the binding result in assay [4] and in assay [5] was “binds” in each case.

B3: murine monoclonal antibody produced by hybridoma cell line clone 2E9 (antibody, V domains shown)
VH: not shown
VL: DVQMTQTTSSLSASLGDRVTISCSASRGISNYLNWYQQKPDGTVKLLIYYTSSLHSGVPPRFSGSGSGTDYSLTISNLEPEDIATYYCQQYSKLPSTFGGGTKVEIK
notes: also called hPrnd #2E9; KCLRF-BP-00493
Regarding B3, the equilibrium dissociation constant (Kd) in assay [2] amounted to 4.05 nM. In assay [5], the binding result is on record as “binds”.

B4: murine monoclonal antibody produced by hybridoma cell line clone 4H7 (antibody, V domains shown)
VH: DVQLQESGPDLVKPSQSLSLTCTVTGYSITSGYSWHWIRQFPGNKLEWMGYIHYSGNTNYNPSLKSRISITRDTSKNQFFLQLNSVTTEDTATYSCAMRTYYYGPLDYWGQGTTLTVSS
VL: not shown
notes: also called hPrnd #4H7; KCLRF-BP-00496
B4: the values for the Kd (in assay [2]; with mPRND [6]) were 0.0287 nM and 0.868 nM, respectively. Besides, the binding result in assay [5] is listed as “binds”.

B5: murine monoclonal antibody produced by hybridoma cell line clone 2B6 (antibody, V domains shown)
VH: QVQLQQSGAELVRPGVSVKLSCKFSGFTFTDYAMHWVRQSHAKSLAWIGVISSYYGDASYNQKFTGKATMTVDKSSSTAYMELARLTSEDSAIYYCARRLRGAMDYWGQGTSVTVSS
VL: DIVMTQSQKFMSTSVGDRVSVTCKASQNVDANVAWYQQKPGQSPKALIYSASYRYSGVPYRFTGSGSGTDFTLTISNVQSADLAEYFCQQYNSYPFTFGSGTKLELK
notes: also called hPrnd #2B6; KCLRF-BP-00490
On to B5, for which the Kd with mPRND [1] was 6.52 nM; in assay [2] it was 0.292 nM. Further, the binding result in assay [4] and in assay [5] was “binds” in each case.

B6: murine monoclonal antibody produced by hybridoma cell line clone 2C10 (antibody, V domains shown)
VH: EVQLQESGPSLVKPSQTLSLTCSVTGDSITSGYWNWIRKFPGNKLEYMGYIRYSGSAYYNPSLKSRISITRDTSKNQYYLQLNSVTTEDTATYYCARYPYYGSYWYFDVWGAGTTVTVSS
VL: DVQITQSPSYLAASPGETITLNCRASKSISKYLAWYQEKPGKTNKLLIYSGSTLQSGIPSRFSGSGSGSDFTLTISSLEPEDFAMYYCQQHSEYPWTFGGGTKLEIK
notes: also called hPrnd #2C10; KCLRF-BP-00491
As to B6, in assay [2], the Kd was 8.76 nM. The binding result in assay [4] and in assay [7] was “binds” throughout.

B7: Human monoclonal antibody A12 (antibody, V domains shown)
VH: not shown
VL: DIQMTQSPSSLSASVGDRVTITCRASQSIGSYLNWYQQKPGKAPKLLIYAASTLQSGVPSRFSGSGSGTDFTLTISSLQPEDFATYYCQQSYSFPWTFGQGTKVEIKR
With B7, the dissociation constant Kd in assay [2] came out at 9.2 nM. Moreover, the binding result in assay [4] and in assay [7] was “binds” throughout.

B8: Human monoclonal antibody B2 (antibody, V domains shown)
VH: not shown
VL: DIQMTQSPSSLSASVGDRVTITCRASQSISNYLNWYQQKPGKAPKLLIYAASRLQSGVPSRFSGSGSGTDFTLTISSLQPEDFATYYCQQSYSFPWTFGQGTKVEIKR
Turning to B8, in assay [2], the Kd was determined as 7.99 nM. Also, the binding result in assay [4] and in assay [7] was “binds” in each case.

B9: Human monoclonal antibody E9 (antibody, human IgG1, kappa, V domains shown)
VH: QVQLVQSGAEVKKPGSSVKVSCKASGGTFSSYYMHWVRQAPGQGLEWMGRISPGGGGTIYAQKFQGRVTITADESTSTAYMELSSLRSEDTAVYYCARAQSEGLSYYFDVWGQGTLVTVSS
VL: DIQMTQSPSSLSASVGDRVTITCRASQSIRNYLNWYQQKPGKAPKLLIYAASNLQSGVPSRFSGSGSGTDFTLTISSLQPEDFATYYCQQSSSFPLTFGQGTKVEIKR
As to B9, in assay [2], the Kd was 4.41 nM.
